Results from patent publication US20210246218A1 (LYVGEN BIOPHARMA SUZHOU, published 2021).

Key:
[1] = target: T1, human FcγRIIIA-Phe158 on CHO-K1 cells (human, UniProt P08637 17-254); assay: flow cytometry on CHO-huFcγRIIIA cells, PE anti-human Fc F(ab')2
T1 construct: whole, on cells; also called CHO-K1-huFcγRIIIA-Phe158; CHO-huFcγIIIA
Procedure: The plate was mixed and incubated in the dark for 2 hours at 4° C.

Ly052 = target: T2, Ly052; assay: ELISA, clone 3712-IgG1v coated, CD137 protein titrated (EC50 is a concentration of the CD137 protein); curve rises only above about 1000 ng/mL to about 0.61 at 100000 ng/mL, no plateau seen
T2 chain: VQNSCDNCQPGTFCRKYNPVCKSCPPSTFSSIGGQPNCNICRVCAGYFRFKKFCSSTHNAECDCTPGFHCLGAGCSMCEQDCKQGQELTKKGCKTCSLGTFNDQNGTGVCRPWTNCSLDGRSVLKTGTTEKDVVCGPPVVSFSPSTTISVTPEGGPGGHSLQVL
Procedure: (§1) The plate was decanted and washed once; assay diluent was added 200 μL/well. After one-hour incubation at room temperature, the plate was washed with PBST one time. CD137 receptor human/mouse chimeras were diluted in assay diluent to 100 or 10 μg/mL, and then a 4-fold serial dilution in assay diluent for 11 points to final concentrations of 100000, 25000, 6250, 1562.5, 390.63, 97.66, 24.41, 6.10, 1.53, 0.38 and 0.095 ng/mL or 10000, 2500, 625, 156.25, 39.06, 9.77, 2.44, 0.61, 0.15, 0.038 and 0.0095 ng/mL. The diluted CD137 receptor was added to the assay plate, 50 μL/well, in duplicate. The plate was incubated one hour at room temperature and then washed three times with PBST. Goat anti-human IgG-H+L HRP conjugated at 1:100,000 20 dilution was added to the plate at 100 μL/well. The plate was then incubated one hour at room temperature followed by washing with PBST four times. The TMB substrate solution was added at 100 μL/well. The color was allowed to develop for 15 minutes, and was stopped with 100 μL/well 2N H2SO4. Absorbance at 450 nm and 620 nm was determined by a Tecan F200 Pro reader.

Ly050 = target: T3, Ly050; assay: ELISA, clone 3712-IgG1v coated, CD137 protein titrated (EC50 is a concentration of the CD137 protein); full sigmoid, plateau about 2.2
T3 chain: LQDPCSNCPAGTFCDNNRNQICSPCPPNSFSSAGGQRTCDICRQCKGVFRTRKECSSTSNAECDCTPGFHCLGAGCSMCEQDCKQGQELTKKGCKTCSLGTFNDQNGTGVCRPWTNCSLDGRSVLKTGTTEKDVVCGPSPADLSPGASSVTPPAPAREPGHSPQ
Procedure: as §1

[2] = target: T4, recombinant human CD137 receptor protein (human, UniProt Q07011 24-186); assay: ELISA, huCD137 coated, clone 3712 titrated; full sigmoid, plateau about 1.5
T4 construct: Coated on ELISA plates; also called recombinant human CD137 protein
Procedure: For the data shown in FIGS. 16C-D, chimeric CD137 receptor protein samples were diluted in DPBS to 5 μg/mL and then coated onto an ELISA plate (Corning, Catalog number: 9018, high binding) at 50 μL (0.25 μg) per well, and incubated at 4° C. overnight. The plate was decanted and washed once; assay diluent was added at 200 μL/well. After a 1-hour incubation at room temperature, the plate was washed with PBST one time. […] The plate was incubated 1 hour at room temperature and then washed three times with PBST. Goat anti-human IgG-H+L HRP-conjugated at 1:100,000 dilution or goat anti-mouse IgG (H+L) secondary antibody, HRP, 10 at 1:50,000 dilution was added to the plate at 100 μL/well. The plate was incubated 1 hour at room temperature followed by washing with PBST four times. The TMB substrate solution was added 100 μL/well. The color was permitted to develop for 15 minutes and then 100 μL/well 2N H2SO4 was added to terminate the reaction. Absorbance at 450 nm and 620 nm was determined by a Tecan F200 Pro reader.

[3] = target: T4, recombinant human CD137 receptor protein; assay: ELISA, recombinant human CD137 protein coated, antibody titrated
Procedure: The human or cynomolgus monkey CD137 receptor protein was diluted in DPBS to 1 μg/mL, and then coated onto an ELISA plate (Corning, Catalog number: 9018, high binding) with a volume of 100 μL (0.1 μg) or 50 μL (0.05 μg) per well, and incubated at 4° C. overnight. The plate was decanted and washed once; assay diluent was added 200 μL/well. After a one-hour incubation at room temperature, the plate was washed with PBST one time. […] The plate was incubated one hour at room temperature and then washed three times with PBST. Goat anti-human IgG-H+L HRP conjugated at 1:100,000 dilution was added to the plate at 100 μL/well. The plate was then incubated one hour at room temperature followed by washing with PBST four times. The TMB substrate solution was added at 100 μL/well. The color was allowed to develop for 15 minutes, and was stopped with 100 μL/well 2N H₂SO₄. Absorbance at 450 nm and 620 nm was determined by a Tecan F200 Pro reader.
Graphpad 7.0, “[Agonist] vs. response—Variable slope (four parameters)” was used to plot the binding data and calculate binding EC₅₀ values.

[4] = target: T4, recombinant human CD137 receptor protein; assay: ELISA, clone 3712-IgG1v coated, huCD137 titrated (EC50 is a concentration of the CD137 protein); full sigmoid, plateau about 2.2
Target sequence in this assay (Q07011 24-186 limits assumed): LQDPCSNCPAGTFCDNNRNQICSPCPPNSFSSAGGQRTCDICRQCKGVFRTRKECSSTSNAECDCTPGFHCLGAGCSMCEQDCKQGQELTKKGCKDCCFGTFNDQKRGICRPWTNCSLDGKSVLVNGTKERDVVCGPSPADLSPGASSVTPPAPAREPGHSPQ

T1 sequence (P08637 17-254): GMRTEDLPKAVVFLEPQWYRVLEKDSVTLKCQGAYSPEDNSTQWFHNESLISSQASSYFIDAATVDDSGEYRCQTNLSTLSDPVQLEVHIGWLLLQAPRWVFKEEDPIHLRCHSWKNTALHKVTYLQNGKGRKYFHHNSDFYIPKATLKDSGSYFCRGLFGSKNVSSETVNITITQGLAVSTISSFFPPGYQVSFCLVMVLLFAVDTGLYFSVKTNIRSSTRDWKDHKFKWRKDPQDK

binding result [1]: no binding (tested: 100 µg/mL)
EC50 (Ly052): 29.5 µg/mL
EC50 (Ly050): 0.00339 µg/mL
EC50 [2]: 0.0572 µg/mL
EC50 (read off the curve) [3]: ~0.05 µg/mL
EC50 [4]: 0.0669 µg/mL
B1: Clone 3712-IgG1v (IgG1v/kappa) (antibody)
heavy: QVQLVQSGAEVKKPGASVKVSCKASGYTFAGFEMHWVRQAPGQGLEWMGAIDPKTGGTDYNQKFKDRVTMTRDTSISTAYMELSRLRSDDTAVYYCARDLGYFDVWGQGTLVTVSSASTKGPSVFPLAPSSKSTSGGTAALGCLVKDYFPEPVTVSWNSGALTSGVHTFPAVLQSSGLYSLSSVVTVPSSSLGTQTYICNVNHKPSNTKVDKKVEPKSCDKTHTCPPCPAPELLGPSVFLFPPKPKDTLMISRTPEVTCVVVDVEHEDPEVKFNWYVDGVEVHNAKTKPREEQYNSTYRVVSVLTVLHQDWLNGKEYKCKVSNKALPAPIEKTISKAKGQPREPQVYTLPPSREEMTKNQVSLTCLVKGFYPSDIAVEWESNGQPENNYKTTPPVLDSDGSFFLYSKLTVDKSRWQQGNVFSCSVMHEALHNHYTQKSLSLSPGK
light: DIQMTQSPSSLSASVGDRVTITCRASQDIRSNLNWYQQKPGGAVKLLIYYTSRLHSGVPSRFSGSGSGTDYTLTISSLQPEDFATYFCQQSEKLPRTFGGGTKVEIRRTVAAPSVFIFPPSDEQLKSGTASVVCLLNNFYPREAKVQWKVDNALQSGNSQESVTEQDSKDSTYSLSSTLTLSKADYEKHKVYACEVTHQGLSSPVTKSFNRGEC
notes: copies: 2 + 2
